Laboratory results: article PMC12785156, “Hydroxylation of HPPD facilitates its PUB11-mediated ubiquitination and degradation in response to oxidative stress in Arabidopsis” (Plant Communications, 2025)

B1: His-AtHPPD (Arabidopsis thaliana 4-hydroxyphenylpyruvate dioxygenase) (enzyme, UniProt P93836 1-445, looked up)
chain: MGHQNAAVSENQNHDDGAASSPGFKLVGFSKFVRKNPKSDKFKVKRFHHIEFWCGDATNVARRFSWGLGMRFSAKSDLSTGNMVHASYLLTSGDLRFLFTAPYSPSLSAGEIKPTTTASIPSFDHGSCRSFFSSHGLGVRAVAIEVEDAESAFSISVANGAIPSSPPIVLNEAVTIAEVKLYGDVVLRYVSYKAEDTEKSEFLPGFERVEDASSFPLDYGIRRLDHAVGNVPELGPALTYVAGFTGFHQFAEFTADDVGTAESGLNSAVLASNDEMVLLPINEPVHGTKRKSQIQTYLEHNEGAGLQHLALMSEDIFRTLREMRKRSSIGGFDFMPSPPPTYYQNLKKRVGDVLSDDQIKECEELGILVDRDDQGTLLQIFTKPLGDRPTIFIEIIQRVGCMMKDEEGKAYQSGGCGGFGKGNFSELFKSIEEYEKTLEAKQLVG
notes: 4-hydroxyphenylpyruvate dioxygenase (AtHPPD), Arabidopsis thaliana, full-length CDS in pET-15b; For MST the His tag was labelled with RED-tris-NTA 2nd generation dye; A low level of self-hydroxylation of phenylalanines is reported also for the untreated protein; also called AtHPPD-WT; His-labeled AtHPPD; source: E. coli BL21(DE3), purified; not shown: His6, N-terminal, kept

Experiments:
full-length MBP-PUB11 = biological target: T1, full-length MBP-PUB11 (Arabidopsis thaliana, UniProt Q8GUG9 1-612); assay: pull-down; purified MBP-PUB11 full length or truncated variants (or MBP alone) with purified His-AtHPPD, 4°C; immunoblot with anti-His and anti-MBP; settings: both partners purified
T1 construct: U-box E3 ubiquitin ligase PUB11, Arabidopsis thaliana, full-length CDS in pMAL-C2x; not shown: MBP, N-terminal, kept
T1 sequence (looked up): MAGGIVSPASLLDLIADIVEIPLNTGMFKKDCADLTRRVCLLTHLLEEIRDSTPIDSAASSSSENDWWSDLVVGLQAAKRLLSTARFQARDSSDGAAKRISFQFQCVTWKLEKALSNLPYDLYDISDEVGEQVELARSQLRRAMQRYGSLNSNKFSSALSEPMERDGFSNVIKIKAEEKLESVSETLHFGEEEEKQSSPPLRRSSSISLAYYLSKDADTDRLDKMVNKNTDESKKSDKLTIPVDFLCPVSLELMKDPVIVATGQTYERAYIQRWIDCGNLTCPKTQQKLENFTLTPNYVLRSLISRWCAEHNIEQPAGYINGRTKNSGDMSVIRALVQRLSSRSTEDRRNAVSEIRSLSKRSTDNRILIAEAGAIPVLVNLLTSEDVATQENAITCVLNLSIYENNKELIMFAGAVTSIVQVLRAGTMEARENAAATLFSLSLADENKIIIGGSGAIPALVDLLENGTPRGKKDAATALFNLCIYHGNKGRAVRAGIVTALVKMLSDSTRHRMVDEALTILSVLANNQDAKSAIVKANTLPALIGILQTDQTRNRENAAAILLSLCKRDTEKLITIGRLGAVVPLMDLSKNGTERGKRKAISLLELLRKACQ

[1] = biological target: B1; assay: MST; His-AtHPPD (or mutants) labelled with RED-tris-NTA 2nd generation, constant 400 nM; GST-PUB11-ARM serially diluted; 25°C; 20 mM HEPES pH 8.0, 100 mM NaCl; three repeats; settings: both partners purified

B1: binds (full-length MBP-PUB11).

B2: GST-PUB11-ARM (domain or fragment)
chain: QPAGYINGRTKNSGDMSVIRALVQRLSSRSTEDRRNAVSEIRSLSKRSTDNRILIAEAGAIPVLVNLLTSEDVATQENAITCVLNLSIYENNKELIMFAGAVTSIVQVLRAGTMEARENAAATLFSLSLADENKIIIGGSGAIPALVDLLENGTPRGKKDAATALFNLCIYHGNKGRAVRAGIVTALVKMLSDSTRHRMVDEALTILSVLANNQDAKSAIVKANTLPALIGILQTDQTRNRENAAAILLSLCKRDTEKLITIGRLGAVVPLMDLSKNGTERGKRKAISLLELLRKACQ
modifications: GST carrier omitted. Limits not printed: ARM region taken as everything after the U-box (240-314) to the C-terminus
Binder B2 has a Kd [1] of 7.42 µM.
